Assay results reported in the supplement of paper PMC5998384.

Experiments:
HeLa Kyoto [1] = assay: solubility in G1/S (NP-40 vs SDS abundance) (log2 ratio); higher = more soluble; details: cell cycle stage: G1/S
HeLa Kyoto [2] = assay: melting temperature (median over replicates), in situ; higher = more thermally stable
HeLa Kyoto [3] = assay: solubility change mitosis vs G1/S (difference of NP-40 vs SDS log2 ratios) (log2 ratio difference); higher = more soluble in mitosis
HeLa Kyoto [4] = assay: thermal stability score vs G1/S (z-score of summed log2 fold changes over temperatures); higher = more thermally stable than in G1/S
[5] = cell cycle stage: early G1 (4.5 h after nocodazole release)
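Wherever melting temperature (median over replicates), in situ is given: HeLa Kyoto cells synchronized by double thymidine or nocodazole block, proteins quantified by TMT10plex mass spectrometry, three independent biological replicates.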
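Wherever solubility change mitosis vs G1/S (difference of NP-40 vs SDS log2 ratios) is given: synchronized HeLa Kyoto cells (double thymidine block for G1/S, nocodazole release for mitosis), protein amounts in NP-40 versus SDS lysates quantified by mass spectrometry, three biological replicates.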
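Wherever solubility in G1/S (NP-40 vs SDS abundance) is given: HeLa Kyoto cells arrested at G1/S by double thymidine block, proteins quantified by TMT10plex mass spectrometry in mild NP-40 versus SDS extracts, three biological replicates.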
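Wherever thermal stability score vs G1/S (z-score of summed log2 fold changes over temperatures) is given: synchronized HeLa Kyoto cells, proteins quantified by TMT10plex mass spectrometry, three biological replicates, mitosis taken 0.5 h after nocodazole release, G1/S directly after double thymidine block.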

Chain of MTO1 (chain, as listed by the source): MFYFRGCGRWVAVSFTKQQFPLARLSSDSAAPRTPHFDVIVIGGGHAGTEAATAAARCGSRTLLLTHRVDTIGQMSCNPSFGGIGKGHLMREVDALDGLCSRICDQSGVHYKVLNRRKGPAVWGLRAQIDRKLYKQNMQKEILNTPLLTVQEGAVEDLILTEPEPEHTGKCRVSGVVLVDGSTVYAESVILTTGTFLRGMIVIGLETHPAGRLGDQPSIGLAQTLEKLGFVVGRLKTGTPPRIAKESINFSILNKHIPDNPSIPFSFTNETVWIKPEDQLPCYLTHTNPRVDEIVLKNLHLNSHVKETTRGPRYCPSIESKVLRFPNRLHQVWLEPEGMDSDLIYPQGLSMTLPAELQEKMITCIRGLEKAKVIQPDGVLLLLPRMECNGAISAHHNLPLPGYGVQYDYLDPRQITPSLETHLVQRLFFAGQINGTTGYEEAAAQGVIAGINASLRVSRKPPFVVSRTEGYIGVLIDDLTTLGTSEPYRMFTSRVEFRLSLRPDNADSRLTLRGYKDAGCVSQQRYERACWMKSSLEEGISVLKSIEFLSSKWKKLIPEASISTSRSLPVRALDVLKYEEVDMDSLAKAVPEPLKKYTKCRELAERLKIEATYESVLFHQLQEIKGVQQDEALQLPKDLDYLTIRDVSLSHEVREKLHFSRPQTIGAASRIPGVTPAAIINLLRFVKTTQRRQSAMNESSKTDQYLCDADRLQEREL

Substance | solubility in G1/S (log2) (HeLa Kyoto [1]) | melting temperature (HeLa Kyoto [2]; cell cycle stage: G1/S) | melting temperature (HeLa Kyoto [2]; cell cycle stage: mitosis) | solubility change mitosis (log2) (HeLa Kyoto [3]) | thermal stability score (HeLa Kyoto [4]; [5]) | thermal stability score (HeLa Kyoto [4]; cell cycle stage: mitosis)
MTILTYPFKNLPTASKWALRFSIRPLSCSSQLRAAPAVQTKTKKTLAKPNIRNVVVVDGVRTPFLLSGTSYKDLMPHDLARAALTGLLHRTSVPKEVVDYIIFGTVIQEVKTSNVAREAALGAGFSDKTPAHTVTMACISANQAMTTGVGLIASGQCDVIVAGGVELMSDVPIRHSRKMRKLMLDLNKAKSMGQRLSLISKFRFNFLAPELPAVSEFSTSETMGHSADRLAAAFAVSRLEQDEYALRSHSLAKKAQDEGLLSDVVPFKVPGKDTVTKDNGIRPSSLEQMAKLKPAFIKPYGTVTAANSSFLTDGASAMLIMAEEKALAMGYKPKAYLRDFMYVSQDPKDQLLLGPTYATPKVLEKAGLTMNDIDAFEFHEAFSGQILANFKAMDSDWFAENYMGRKTKVGLPPLEKFNNWGGSLSLGHPFGATGCRLVMAAANRLRKEGGQYGLVAACAAGGQGHAMIVEAYPK [HADHB] | 0.274 | 50.7 °C | 50.7 °C | -0.0395 | -0.727 | -0.0884
MTKAGSKGGNLRDKLDGNELDLSLSDLNEVPVKELAALPKATILDLSCNKLTTLPSDFCGLTHLVKLDLSKNKLQQLPADFGRLVNLQHLDLLNNKLVTLPVSFAQLKNLKWLDLKDNPLDPVLAKVAGDCLDEKQCKQCANKVLQHMKAVQADQERERQRRLEVEREAEKKREAKQRAKEAQERELRKREKAEEKERRRKEYDALKAAKREQEKKPKKEANQAPKSKSGSRPRKPPPRKHTRSWAVLKLLLLLLLFGVAGGLVACRVTELQQQPLCTSVNTIYDNAVQGLRRHEILQWVLQTDSQQ [LRRC59] | 0.751 | 56.7 °C | 54 °C | 0.236 | 2.96 | -1.3
MTKFGFLRLSYEKQDTLLKLLILSMAAVLSFSTRLFAVLRFESVIHEFDPYFNYRTTRFLAEEGFYKFHNWFDDRAWYPLGRIIGGTIYPGLMITSAAIYHVLHFFHITIDIRNVCVFLAPLFSSFTTIVTYHLTKELKDAGAGLLAAAMIAVVPGYISRSVAGSYDNEGIAIFCMLLTYYMWIKAVKTGSICWAAKCALAYFYMVSSWGGYVFLINLIPLHVLVLMLTGRFSHRIYVAYCTVYCLGTILSMQISFVGFQPVLSSEHMAAFGVFGLCQIHAFVDYLRSKLNPQQFEVLFRSVISLVGFVLLTVGALLMLTGKISPWTGRFYSLLDPSYAKNNIPIIASVSEHQPTTWSSYYFDLQLLVFMFPVGLYYCFSNLSDARIFIIMYGVTSMYFSAVMVRLMLVLAPVMCILSGIGVSQVLSTYMKNLDISRPDKKSKKQQDSTYPIKNEVASGMILVMAFFLITYTFHSTWVTSEAYSSPSIVLSARGGDGSRIIFDDFREAYYWLRHNTPEDAKVMSWWDYGYQITAMANRTILVDNNTWNNTHISRVGQAMASTEEKAYEIMRELDVSYVLVIFGGLTGYSSDDINKFLWMVRIGGSTDTGKHIKENDYYTPTGEFRVDREGSPVLLNCLMYKMCYYRFGQVYTEAKRPPGFDRVRNAEIGNKDFELDVLEEAYTTEHWLVRIYKVKDLDNRGLSRT [STT3A] | -0.102 | 53.7 °C | 54 °C | -0.105 | 1.3 | 3.3
MTLESIMACCLSEEAKEARRINDEIERQLRRDKRDARRELKLLLLGTGESGKSTFIKQMRIIHGSGYSDEDKRGFTKLVYQNIFTAMQAMIRAMDTLKIPYKYEHNKAHAQLVREVDVEKVSAFENPYVDAIKSLWNDPGIQECYDRRREYQLSDSTKYYLNDLDRVADPAYLPTQQDVLRVRVPTTGIIEYPFDLQSVIFRMVDVGGQRSERRKWIHCFENVTSIMFLVALSEYDQVLVESDNENRMEESKALFRTIITYPWFQNSSVILFLNKKDLLEEKIMYSHLVDYFPEYDGPQRDAQAAREFILKMFVDLNPDSDKIIYSHFTCATDTENIRFVFAAVKDTILQLNLKEYNLV [GNAQ] | -0.282 | 54.7 °C | 54.3 °C | -0.0689 | -0.77 | -0.236
MTMDGDSSTTDASQLGISADYIGGSHYVIQPHDDTEDSMNDHEDTNGSKESFREQDIYLPIANVARIMKNAIPQTGKIAKDAKECVQECVSEFISFITSEASERCHQEKRKTINGEDILFAMSTLGFDSYVEPLKLYLQKFREAMKGEKGIGGAVTATDGLSEELTEEAFTNQLPAGLITTDGQQQNVMVYTTSYQQISGVQQIQFS [NFYB] | 0.036 | 54.5 °C | 54.5 °C | 0.064 | 0.178 | 0.0131
MTNPSDRVLPANSMAESREGDFGCTVMELRKLMELRSRDALTQINVHYGGVQNLCSRLKTSPVEGLSGNPADLEKRRQVFGHNVIPPKKPKTFLELVWEALQDVTLIILEIAAIISLVLSFYRPAGEENELCGQVATTPEDENEAQAGWIEGAAILFSVIIVVLVTAFNDWSKEKQFRGLQCRIEQEQKFSIIRNGQLIQLPVAEIVVGDIAQVKYGDLLPADGILIQGNDLKIDESSLTGESDHVKKSLDKDPMLLSGTHVMEGSGRMVVTAVGVNSQTGIILTLLGVNEDDEGEKKKKGKKQGVPENRNKAKTQDGVALEIQPLNSQEGIDNEEKDKKAVKVPKKEKSVLQGKLTRLAVQIGKAGLLMSALTVFILILYFVIDNFVINRRPWLPECTPIYIQYFVKFFIIGITVLVVAVPEGLPLAVTISLAYSVKKMMKDNNLVRHLDACETMGNATAICSDKTGTLTMNRMTVVQAYIGGIHYRQIPSPDVFLPKVLDLIVNGISINSAYTSKILPPEKEGGLPRQVGNKTECALLGFVTDLKQDYQAVRNEVPEEKLYKVYTFNSVRKSMSTVIRNPNGGFRMYSKGASEIILRKCNRILDRKGEAVPFKNKDRDDMVRTVIEPMACDGLRTICIAYRDFDDTEPSWDNENEILTELTCIAVVGIEDPVRPEVPDAIAKCKQAGITVRMVTGDNINTARAIATKCGILTPGDDFLCLEGKEFNRLIRNEKGEVEQEKLDKIWPKLRVLARSSPTDKHTLVKGIIDSTVGEHRQVVAVTGDGTNDGPALKKADVGFAMGIAGTDVAKEASDIILTDDNFTSIVKAVMWGRNVYDSISKFLQFQLTVNVVAVIVAFTGACITQDSPLKAVQMLWVNLIMDTFASLALATEPPTESLLKRRPYGRNKPLISRTMMKNILGHAFYQLIVIFILVFAGEKFFDIDSGRKAPLHSPPSQHYTIVFNTFVLMQLFNEINSRKIHGEKNVFSGIYRNIIFCSVVLGTFICQIFIVEFGGKPFSCTSLSLSQWLWCLFIGIGELLWGQFISAIPTRSLKFLKEAGHGTTKEEITKDAEGLDEIDHAEMELRRGQILWFRGLNRIQTQIDVINTFQTGASFKGVLRRQNMGQHLDVKLVPSSSYIKVVKAFHSSLHESIQKPYNQKSIHSFMTHPEFAIEEELPRTPLLDEEEEENPDKASKFGTRVLLLDGEVTPYANTNNNAVDCNQVQLPQSDSSLQSLETSV [ATP2B4] | -0.254 | 54.7 °C | 54.9 °C | -0.0607 | 1.12 | 0.912
MTO1 | -0.108 | 50 °C | 50.4 °C | -0.0427 | -0.222 | 1.63
MTPEFDEEVVFENSPLYQYLQDLGHTDFEICSSLSPKTEKCTTEGQQKPPTRVLPKQGILLKVAETIKSWIFFSQCNKKDDLLHKLDIGFRLDSLHTILQQEVLLQEDVELIELLDPSILSAGQSQQQENGHLPTLCSLATPNIWDLSMLFAFISLLVMLPTWWIVSSWLVWGVILFVYLVIRALRLWRTAKLQVTLKKYSVHLEDMATNSRAFTNLVRKALRLIQETEVISRGFTLVSAACPFNKAGQHPSQHLIGLRKAVYRTLRANFQAARLATLYMLKNYPLNSESDNVTNYICVVPFKELGLGLSEEQISEEEAHNFTDGFSLPALKVLFQLWVAQSSEFFRRLALLLSTANSPPGPLLTPALLPHRILSDVTQGLPHAHSACLEELKRSYEFYRYFETQHQSVPQCLSKTQQKSRELNNVHTAVRSLQLHLKALLNEVIILEDELEKLVCTKETQELVSEAYPILEQKLKLIQPHVQASNNCWEEAISQVDKLLRRNTDKKGKPEIACENPHCTVVPLKQPTLHIADKDPIPEEQELEAYVDDIDIDSDFRKDDFYYLSQEDKERQKREHEESKRVLQELKSVLGFKASEAERQKWKQLLFSDHAVLKSLSPVDPVEPISNSEPSMNSDMGKVSKNDTEEESNKSATTDNEISRTEYLCENSLEGKNKDNSSNEVFPQGAEERMCYQCESEDEPQADGSGLTTAPPTPRDSLQPSIKQRLARLQLSPDFTFTAGLAAEVAARSLSFTTMQEQTFGGEEEEQIIEENKNEIEEK [VEZT] | 0.0301 | 52.6 °C | 52 °C | -0.229 | -1.08 | -3.04
MTSAAPAKKPYRKAPPEHRELRLEIPGSRLEQEEPLTDAERMKLLQEENEELRRRLASATRRTEALERELEIGQDCLELELGQSREELDKFKDKFRRLQNSYTASQRTNQELEDKLHTLASLSHSWIFAIKKAEMDRKTLDWEIVELTNKLLDAKNTINKLEELNERYRLDCNLAVQLLKCNKSHFRNHKFADLPCELQDMVRKHLHSGQEAASPGPAPSLAPGAVVPTSVIARVLEKPESLLLNSAQSGSAGRPLAEDVFVHVDMSEGVPGDPASPPAPGSPTPQPNGECHSLGTARGSPEEELPLPAFEKLNPYPTPSPPHPLYPGRRVIEFSEDKVRIPRNSPLPNCTYATRQAISLSLVEEGSERARPSPVPSTPASAQASPHHQPSPAPLTLSAPASSASSEEDLLVSWQRAFVDRTPPPAAVAQRTAFGRDALPELQRHFAHSPADRDEVVQAPSARPEESELLLPTEPDSGFPREEEELNLPISPEEERQSLLPINRGTEEGPGTSHTEGRAWPLPSSSRPQRSPKRMGVHHLHRKDSLTQAQEQGNLLN [TJAP1] | 0.288 | 51.1 °C | 51.7 °C | -0.036 | 1.77 | 3.57
MTSIIKLTTLSGVQEESALCYLLQVDEFRFLLDCGWDEHFSMDIIDSLRKHVHQIDAVLLSHPDPLHLGALPYAVGKLGLNCAIYATIPVYKMGQMFMYDLYQSRHNTEDFTLFTLDDVDAAFDKIQQLKFSQIVNLKGKGHGLSITPLPAGHMIGGTIWKIVKDGEEEIVYAVDFNHKREIHLNGCSLEMLSRPSLLITDSFNATYVQPRRKQRDEQLLTNVLETLRGDGNVLIAVDTAGRVLELAQLLDQIWRTKDAGLGVYSLALLNNVSYNVVEFSKSQVEWMSDKLMRCFEDKRNNPFQFRHLSLCHGLSDLARVPSPKVVLASQPDLECGFSRDLFIQWCQDPKNSIILTYRTTPGTLARFLIDNPSEKITEIELRKRVKLEGKELEEYLEKEKLKKEAAKKLEQSKEADIDSSDESDIEEDIDQPSAHKTKHDLMMKGEGSRKGSFFKQAKKSYPMFPAPEERIKWDEYGEIIKPEDFLVPELQATEEEKSKLESGLTNGDEPMDQDLSDVPTKCISTTESIEIKARVTYIDYEGRSDGDSIKKIINQMKPRQLIIVHGPPEASQDLAECCRAFGGKDIKVYMPKLHETVDATSETHIYQVRLKDSLVSSLQFCKAKDAELAWIDGVLDMRVSKVDTGVILEEGELKDDGEDSEMQVEAPSDSSVIAQQKAMKSLFGDDEKETGEESEIIPTLEPLPPHEVPGHQSVFMNEPRLSDFKQVLLREGIQAEFVGGVLVCNNQVAVRRTETGRIGLEGCLCQDFYRIRDLLYEQYAIV [CPSF2] | -0.409 | 48.7 °C | 50.3 °C | 0.0805 | -0.0481 | 1.62
MTSLTQRSSGLVQRRTEASRNAADKERAAGGGAGSSEDDAQSRRDEQDDDDKGDSKETRLTLMEEVLLLGLKDREGYTSFWNDCISSGLRGCMLIELALRGRLQLEACGMRRKSLLTRKVICKSDAPTGDVLLDEALKHVKETQPPETVQNWIELLSGETWNPLKLHYQLRNVRERLAKNLVEKGVLTTEKQNFLLFDMTTHPLTNNNIKQRLIKKVQEAVLDKWVNDPHRMDRRLLALIYLAHASDVLENAFAPLLDEQYDLATKRVRQLLDLDPEVECLKANTNEVLWAVVAAFTK [GOLPH3] | 0.434 | 51.9 °C | 51.5 °C | -0.137 | 0.551 | -0.641
